The values that follow come from publication PMC9482650, “Quantitative fragmentomics allow affinity mapping of interactomes” (Nature Communications, 2022).

To fix the notation:
T1: APBA2_2, Q99767
T1 sequence (Q99767 654-744, limits assumed, looked up): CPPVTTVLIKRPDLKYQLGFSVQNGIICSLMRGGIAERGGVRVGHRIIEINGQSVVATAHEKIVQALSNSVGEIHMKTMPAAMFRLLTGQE

T2: ARHGAP21, Q5T5U3
T2 sequence (Q5T5U3 45-169, limits assumed, looked up): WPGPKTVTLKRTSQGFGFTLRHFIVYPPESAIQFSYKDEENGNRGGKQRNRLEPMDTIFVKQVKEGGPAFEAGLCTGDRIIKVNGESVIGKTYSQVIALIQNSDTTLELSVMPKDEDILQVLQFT

T3: DFNB31_2, Q9P202
T3 sequence (Q9P202 274-371, limits assumed, looked up): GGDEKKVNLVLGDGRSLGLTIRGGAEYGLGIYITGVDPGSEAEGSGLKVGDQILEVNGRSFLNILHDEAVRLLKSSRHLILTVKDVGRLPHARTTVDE

T4: DLG3_1, Q92796
T4 sequence (Q92796 125-227, limits assumed, looked up): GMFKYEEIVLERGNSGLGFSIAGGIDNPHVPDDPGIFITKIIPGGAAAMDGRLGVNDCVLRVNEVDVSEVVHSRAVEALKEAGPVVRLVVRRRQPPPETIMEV

T5: LIN7A, O14910
T5 sequence (O14910 103-200, limits assumed, looked up): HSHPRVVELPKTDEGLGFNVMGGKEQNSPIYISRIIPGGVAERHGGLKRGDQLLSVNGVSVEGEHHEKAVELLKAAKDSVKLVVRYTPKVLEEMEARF

T6: LRRC7, Q96NW7
T6 sequence (Q96NW7 1440-1537, limits assumed, looked up): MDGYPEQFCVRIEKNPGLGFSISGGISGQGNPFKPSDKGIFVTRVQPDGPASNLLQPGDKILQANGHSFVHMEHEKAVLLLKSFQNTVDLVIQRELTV

T7: MPDZ_10, O75970
T7 sequence (O75970 1624-1722, limits assumed, looked up): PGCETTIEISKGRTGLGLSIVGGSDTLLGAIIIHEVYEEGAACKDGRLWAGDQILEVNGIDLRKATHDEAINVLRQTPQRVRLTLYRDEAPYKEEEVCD

T8: MPDZ_12, O75970
T8 sequence (O75970 1857-1958, limits assumed, looked up): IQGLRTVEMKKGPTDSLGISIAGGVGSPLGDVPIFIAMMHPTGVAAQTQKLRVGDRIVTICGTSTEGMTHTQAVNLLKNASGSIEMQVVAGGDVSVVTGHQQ

T9: MPDZ_5, O75970
T9 sequence (O75970 695-796, limits assumed, looked up): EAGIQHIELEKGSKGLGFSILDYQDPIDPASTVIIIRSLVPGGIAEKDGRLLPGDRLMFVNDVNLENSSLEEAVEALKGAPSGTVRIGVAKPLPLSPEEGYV

T10: NHERF3_1, Q5T2W1
T10 sequence (Q5T2W1 4-100, limits assumed, looked up): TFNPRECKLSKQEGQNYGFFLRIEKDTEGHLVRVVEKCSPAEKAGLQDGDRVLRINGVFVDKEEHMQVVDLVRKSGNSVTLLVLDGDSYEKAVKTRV

T11: NHERF3_4, Q5T2W1
T11 sequence (Q5T2W1 373-468, limits assumed, looked up): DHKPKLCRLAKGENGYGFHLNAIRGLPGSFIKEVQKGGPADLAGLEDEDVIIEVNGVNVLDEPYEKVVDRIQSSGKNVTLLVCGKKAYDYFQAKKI

T12: PDZRN3_1, Q9UPQ7
T12 sequence (Q9UPQ7 244-349, limits assumed, looked up): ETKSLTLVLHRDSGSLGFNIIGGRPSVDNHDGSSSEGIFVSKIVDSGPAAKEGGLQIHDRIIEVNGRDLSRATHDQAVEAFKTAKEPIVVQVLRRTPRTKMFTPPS

T13: TX1BP3, O14907
T13 sequence (O14907 10-122, limits assumed, looked up): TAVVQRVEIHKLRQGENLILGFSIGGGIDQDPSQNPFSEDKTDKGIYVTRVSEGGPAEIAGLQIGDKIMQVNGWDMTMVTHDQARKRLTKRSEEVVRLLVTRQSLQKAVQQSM

B1: JAG1, P78504 (peptide)
chain: QSLNRMEYIV
B2: SLC22A12, Q96S37 (peptide)
chain: GNSVLKSTQF

DLG1_2, Q12959, sequence (Q12959 314-412): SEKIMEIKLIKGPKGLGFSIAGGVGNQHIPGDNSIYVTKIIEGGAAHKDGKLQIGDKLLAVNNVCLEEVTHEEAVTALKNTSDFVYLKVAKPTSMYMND
PICK1, Q9NRD5, sequence (Q9NRD5 17-115): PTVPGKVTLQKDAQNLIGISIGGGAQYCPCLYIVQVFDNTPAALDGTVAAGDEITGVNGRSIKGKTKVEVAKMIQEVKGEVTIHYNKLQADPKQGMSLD
MAST1, Q9Y2H9, sequence (Q9Y2H9 962-1065): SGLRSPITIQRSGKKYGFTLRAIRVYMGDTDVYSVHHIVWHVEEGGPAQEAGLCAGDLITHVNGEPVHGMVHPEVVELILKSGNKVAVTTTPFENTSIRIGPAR

The first experiment addresses T1, APBA2_2, Q99767. The experiment can be described thus: holdup assay. Set-up: key: below the threshold = too weak to quantify, mostly under pKd 3.1 to 4. Particulars: plain residues with an end cap or a label only (N-terminal biotin on a linker: ado-ado).
As usually defined, the pKd is −log10 of the Kd, conventionally taken in molar units. For B1, the pKd entry is listed as “below the threshold”.
Take B2: the pKd result is given as “below the threshold”.

The next experiment addresses T2, ARHGAP21, Q5T5U3. As to the kind of experiment: holdup assay. Details: key: below the threshold = too weak to quantify, mostly under pKd 3.1 to 4. The following applies: plain residues with an end cap or a label only (N-terminal biotin on a linker: ado-ado).
As to B1, the negative-log Kd (pKd) entry is recorded as “below the threshold”.
On the same count and under the same terms, to B2 belongs “below the threshold”.

The next experiment addresses T3, DFNB31_2, Q9P202. As to the kind of experiment: holdup assay. Particulars: plain residues with an end cap or a label only (N-terminal biotin on a linker: ado-ado). Set-up: key: below the threshold = too weak to quantify, mostly under pKd 3.1 to 4.
For B1, the pKd result is given as “below the threshold”.
The same measure, in the same setting: to B2 belongs “below the threshold”.

Another experiment has as its target DLG1_2, Q12959. As to the kind of experiment: holdup assay. Set-up: key: below the threshold = too weak to quantify, mostly under pKd 3.1 to 4. The following applies: plain residues with an end cap or a label only (N-terminal biotin on a linker: ado-ado).
As to B1, the pKd entry was “below the threshold”.
With B2, the pKd entry is reported as “below the threshold”.

For the next experiment, the target named is DLG2_2, Q15700. As to the kind of experiment: holdup assay. Details: key: below the threshold = too weak to quantify, mostly under pKd 3.1 to 4. Particulars: plain residues with an end cap or a label only (N-terminal biotin on a linker: ado-ado).
Consider B1, for which the pKd entry is “below the threshold”.
As for B2, the pKd entry is given as “below the threshold”.

The target in a further experiment is DLG2_3, Q15700. As to the kind of experiment: holdup assay. Set-up: key: below the threshold = too weak to quantify, mostly under pKd 3.1 to 4. Particulars: plain residues with an end cap or a label only (N-terminal biotin on a linker: ado-ado).
As to B1, the negative logarithm of the Kd (pKd) was 3.96.
Same read-out and setting: under B2 stands 3.74.

The next experiment deals with T4, DLG3_1, Q92796. As to the kind of experiment: holdup assay. Set-up: key: below the threshold = too weak to quantify, mostly under pKd 3.1 to 4. The following applies: plain residues with an end cap or a label only (N-terminal biotin on a linker: ado-ado).
With B1, the negative logarithm of the Kd (pKd) entry is “below the threshold”.
Regarding B2, the pKd result is recorded as “below the threshold”.

The target of another experiment is HTRA1, Q92743. The experiment can be described thus: holdup assay. Set-up: key: below the threshold = too weak to quantify, mostly under pKd 3.1 to 4. The following applies: plain residues with an end cap or a label only (N-terminal biotin on a linker: ado-ado).
HTRA1, Q92743, sequence (Q92743 360-477): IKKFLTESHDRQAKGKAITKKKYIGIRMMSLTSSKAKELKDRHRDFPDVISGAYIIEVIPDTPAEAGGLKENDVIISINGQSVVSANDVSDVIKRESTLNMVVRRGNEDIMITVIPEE
Turning to B1, the negative-log Kd (pKd) came out at 5.37.
On to B2, for which the pKd entry is reported as “below the threshold”.

The target in another experiment is IL16_3, Q14005. The experiment can be described thus: holdup assay. Particulars: plain residues with an end cap or a label only (N-terminal biotin on a linker: ado-ado). Details: key: below the threshold = too weak to quantify, mostly under pKd 3.1 to 4.
IL16_3, Q14005, sequence (Q14005 1107-1207): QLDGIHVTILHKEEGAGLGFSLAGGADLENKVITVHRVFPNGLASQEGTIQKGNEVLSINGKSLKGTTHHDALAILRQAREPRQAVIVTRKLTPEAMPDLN
As for B1, the negative-log Kd (pKd) entry was “below the threshold”.
Turning to B2, the pKd entry is on record as “below the threshold”.

The target in another experiment is T5, LIN7A, O14910. As to the kind of experiment: holdup assay. Details: key: below the threshold = too weak to quantify, mostly under pKd 3.1 to 4. Particulars: plain residues with an end cap or a label only (N-terminal biotin on a linker: ado-ado).
Consider B1, for which the pKd result is given as “below the threshold”.
Same read-out and setting: under B2 stands “below the threshold”.

Another experiment deals with T6, LRRC7, Q96NW7. The experiment can be described thus: holdup assay. Set-up: key: below the threshold = too weak to quantify, mostly under pKd 3.1 to 4. Particulars: plain residues with an end cap or a label only (N-terminal biotin on a linker: ado-ado).
Consider B1, for which the pKd entry is listed as “below the threshold”.
Still for that read-out and setting: to B2 belongs “below the threshold”.

The target of the next experiment is MAGI2_5, Q86UL8. As to the kind of experiment: holdup assay. Set-up: key: below the threshold = too weak to quantify, mostly under pKd 3.1 to 4. The following applies: plain residues with an end cap or a label only (N-terminal biotin on a linker: ado-ado).
MAGI2_5, Q86UL8, sequence (Q86UL8 915-1017): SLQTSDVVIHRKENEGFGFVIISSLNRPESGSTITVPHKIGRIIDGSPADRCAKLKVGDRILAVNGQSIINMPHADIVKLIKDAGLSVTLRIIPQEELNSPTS
For the molecule B1, the negative-log Kd (pKd) entry is “below the threshold”.
B2: the pKd was 4.3.

A further experiment addresses MAST1, Q9Y2H9. The experiment can be described thus: holdup assay. Details: key: below the threshold = too weak to quantify, mostly under pKd 3.1 to 4. The following applies: plain residues with an end cap or a label only (N-terminal biotin on a linker: ado-ado).
In the case of B1, the negative-log Kd (pKd) was 3.49.
The same measure, in the same setting: to B2 belongs 4.26.

The target of a further experiment is T7, MPDZ_10, O75970. The experiment can be described thus: holdup assay. Details: key: below the threshold = too weak to quantify, mostly under pKd 3.1 to 4. Particulars: plain residues with an end cap or a label only (N-terminal biotin on a linker: ado-ado).
With B1, the pKd entry is reported as “below the threshold”.
Still for that read-out and setting: under B2 stands “below the threshold”.

A further experiment addresses T8, MPDZ_12, O75970. The experiment can be described thus: holdup assay. Details: key: below the threshold = too weak to quantify, mostly under pKd 3.1 to 4. Particulars: plain residues with an end cap or a label only (N-terminal biotin on a linker: ado-ado).
B1: the negative-log Kd (pKd) result is recorded as “below the threshold”.
The same measure, in the same setting: under B2 stands “below the threshold”.

The next experiment concerns the target T9, MPDZ_5, O75970. The experiment can be described thus: holdup assay. Details: key: below the threshold = too weak to quantify, mostly under pKd 3.1 to 4. The following applies: plain residues with an end cap or a label only (N-terminal biotin on a linker: ado-ado).
In the case of B1, the pKd was found to be 4.07.
For B2, the pKd entry is reported as “below the threshold”.

A further experiment deals with T10, NHERF3_1, Q5T2W1. The experiment can be described thus: holdup assay. Set-up: key: below the threshold = too weak to quantify, mostly under pKd 3.1 to 4. The following applies: plain residues with an end cap or a label only (N-terminal biotin on a linker: ado-ado).
Regarding B1, the pKd entry was “below the threshold”.
On the same count and under the same terms, to B2 belongs 6.17.

Another experiment addresses T11, NHERF3_4, Q5T2W1. The experiment can be described thus: holdup assay. Particulars: plain residues with an end cap or a label only (N-terminal biotin on a linker: ado-ado). Set-up: key: below the threshold = too weak to quantify, mostly under pKd 3.1 to 4.
For B1, the negative logarithm of the Kd (pKd) entry was “below the threshold”.
The same measure, in the same setting: under B2 stands 5.45.

Another experiment deals with NOS1, P29475. The experiment can be described thus: holdup assay. Details: key: below the threshold = too weak to quantify, mostly under pKd 3.1 to 4. Particulars: plain residues with an end cap or a label only (N-terminal biotin on a linker: ado-ado).
NOS1, P29475, sequence (P29475 9-101): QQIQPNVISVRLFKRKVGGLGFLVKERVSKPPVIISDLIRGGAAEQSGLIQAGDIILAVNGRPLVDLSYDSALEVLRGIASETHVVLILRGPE
The molecule B1 registered a pKd of 3.54.
Same read-out and setting: to B2 belongs 3.72.

In a further experiment the target is T12, PDZRN3_1, Q9UPQ7. As to the kind of experiment: holdup assay. Details: key: below the threshold = too weak to quantify, mostly under pKd 3.1 to 4. Particulars: plain residues with an end cap or a label only (N-terminal biotin on a linker: ado-ado).
Regarding B1, the pKd result is “below the threshold”.
Take B2: the negative logarithm of the Kd (pKd) result is given as “below the threshold”.

Another experiment concerns the target PICK1, Q9NRD5. As to the kind of experiment: holdup assay. Set-up: key: below the threshold = too weak to quantify, mostly under pKd 3.1 to 4. The following applies: plain residues with an end cap or a label only (N-terminal biotin on a linker: ado-ado).
B1: the pKd result is “below the threshold”.
Same read-out and setting: under B2 stands 4.02.

A further experiment deals with PTPN3, P26045. The experiment can be described thus: holdup assay. Details: key: below the threshold = too weak to quantify, mostly under pKd 3.1 to 4. Particulars: plain residues with an end cap or a label only (N-terminal biotin on a linker: ado-ado).
PTPN3, P26045, sequence (P26045 505-587): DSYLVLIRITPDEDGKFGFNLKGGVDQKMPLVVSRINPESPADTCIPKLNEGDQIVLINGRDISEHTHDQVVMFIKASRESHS
In the case of B1, the pKd result is “below the threshold”.
B2 yielded a negative-log Kd (pKd) of 4.59.

In the next experiment the target is TJP1_2, Q07157. The experiment can be described thus: holdup assay. Details: key: below the threshold = too weak to quantify, mostly under pKd 3.1 to 4. The following applies: plain residues with an end cap or a label only (N-terminal biotin on a linker: ado-ado).
TJP1_2, Q07157, sequence (Q07157 181-274): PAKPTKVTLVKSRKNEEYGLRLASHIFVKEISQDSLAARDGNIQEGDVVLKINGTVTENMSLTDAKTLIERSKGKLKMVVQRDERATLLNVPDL
B1: the pKd entry is given as “below the threshold”.
On to B2, for which the negative logarithm of the Kd (pKd) result was “below the threshold”.

The target in another experiment is T13, TX1BP3, O14907. As to the kind of experiment: holdup assay. Set-up: key: below the threshold = too weak to quantify, mostly under pKd 3.1 to 4. The following applies: plain residues with an end cap or a label only (N-terminal biotin on a linker: ado-ado).
Take B1: the negative logarithm of the Kd (pKd) result is “below the threshold”.
Still for that read-out and setting: under B2 stands “below the threshold”.
